Assay results published in patent US20210269532A1 (SYMPHOGEN A S, published 2021).

T1: His-tagged human AXL extracellular domain (recombinant) (human, UniProt P30530 26-451)
T1 construct: treated as one molecule; also called human AXL ECD; AXL-His ECD; not shown: His tag
T1 sequence: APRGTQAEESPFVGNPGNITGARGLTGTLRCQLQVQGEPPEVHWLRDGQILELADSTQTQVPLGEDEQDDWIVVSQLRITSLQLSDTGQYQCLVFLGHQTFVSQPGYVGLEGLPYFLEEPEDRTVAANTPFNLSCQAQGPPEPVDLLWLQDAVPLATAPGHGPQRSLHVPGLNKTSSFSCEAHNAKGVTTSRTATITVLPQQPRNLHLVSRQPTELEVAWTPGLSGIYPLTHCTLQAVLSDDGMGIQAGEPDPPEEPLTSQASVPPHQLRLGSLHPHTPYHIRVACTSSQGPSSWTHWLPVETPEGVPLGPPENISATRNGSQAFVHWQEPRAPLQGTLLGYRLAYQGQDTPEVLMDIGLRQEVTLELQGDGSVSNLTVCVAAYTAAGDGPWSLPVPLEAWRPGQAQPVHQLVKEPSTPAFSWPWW

T2: human AXL extracellular domain transiently expressed on CHO-S cells (human, UniProt P30530 26-451)
T2 construct: also called human AXL ECD on CHO-S cells
T2 sequence: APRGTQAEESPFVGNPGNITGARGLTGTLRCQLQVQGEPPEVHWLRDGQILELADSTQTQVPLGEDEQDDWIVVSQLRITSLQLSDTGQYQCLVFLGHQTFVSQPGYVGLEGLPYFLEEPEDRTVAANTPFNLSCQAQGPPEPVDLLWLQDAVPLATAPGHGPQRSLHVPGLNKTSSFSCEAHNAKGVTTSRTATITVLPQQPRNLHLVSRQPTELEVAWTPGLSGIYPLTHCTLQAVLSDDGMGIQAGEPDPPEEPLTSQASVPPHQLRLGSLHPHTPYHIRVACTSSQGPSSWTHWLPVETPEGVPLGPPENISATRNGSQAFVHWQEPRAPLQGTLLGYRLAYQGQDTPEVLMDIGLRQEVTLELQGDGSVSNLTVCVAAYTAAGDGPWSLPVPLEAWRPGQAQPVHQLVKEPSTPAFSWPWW


Tests used:
[1] = target: T1, His-tagged human AXL extracellular …; test: SPR (IBIS MX96), antibody captured, monovalent His-tagged AXL ECD in solution, 1:1 fit
Protocol: (§1) The kinetic binding analysis was performed by surface plasmon resonance (SPR), using a Continuous Flow Microspotter (CFM, Wasatch Microfluidics, Salt Lake City, US) combined with an IBIS MX96 SPR instrument (IBIS Technologies, The Netherlands).
(§2) His-tagged human and cynomolgus AXL ECD were expressed in Expi293F cells and purified by Ni-NTA chromatography. Binding kinetics were measured under monovalent antigen conditions by immobilizing anti-AXL antibodies and keeping the monovalent AXL antigen in solution. Antibodies were captured onto a G-a-hu-IgG Fc SensEye® (Ssens BV, The Netherlands) for 15 minutes using a Continuous Flow Microspotter (CFM, Wasatch Microfluidics, Salt Lake City, US). After spotting, the SensEye® was positioned in the IBIS MX96 biosensor and captured proteins were fixed to the surface using FixIT kit (Ssens BV, The Netherlands). Kinetic analysis was performed by applying kinetic titration series (Karlsson et al., Anal Biochem. 349(1):136-47 (2006)), with antigen injections at increasing concentrations from 0.14 nM to 100 nM. Antigen association and dissociation was performed for 15 minutes. After each antigen injection series, the surface was regenerated by 100 mM H₃PO₄, pH 3 regeneration buffer. The recorded binding responses were fitted to a simple Langmuir 1:1 binding model with Scrubber 2 software for calculation of the on-rate (kₒₙ or ka), off-rate (koff or kd) and affinity (KD) constants.

[2] = target: T3, His-tagged cynomolgus AXL extracellular domain (recombinant) (cynomolgus); test: as above
T3 construct: extracellular domain; Expressed in Expi293F cells, purified by Ni-NTA; also called cynomolgus AXL ECD
Protocol: as §1, §2

[3] = target: T4, cynomolgus AXL extracellular domain transiently expressed on CHO-S cells (cynomolgus); test: flow cytometry, serial dilution on CHO-S cells transiently expressing cynomolgus AXL ECD, AF647 anti-human IgG secondary, GeoMean (RL1-H)
T4 construct: extracellular domain; also called cynomolgus AXL ECD on CHO-S cells
Protocol: (§3) Six anti-human AXL antibodies and reference antibody analogues were evaluated by flow cytometry for in vitro binding to human or cynomolgus AXL extracellular domain transiently expressed on CHO-S cells. For comparison, reference antibody analogues were included in the evaluation. All antibodies were incubated in serial dilutions together with the transiently transfected CHO-S cells for 30 min at 4° C. Following two washing steps, the cells were incubated with AF647-conjugated secondary anti-human IgG (H+L) antibody for 30 min at 4° C. A final washing step was done prior to acquisition of the cells on an iQue Plus screener. Results were calculated by GrafPad Prism software.

[4] = target: T2, human AXL extracellular domain …; test: flow cytometry, serial dilution on CHO-S cells transiently expressing human AXL ECD, AF647 anti-human IgG secondary, GeoMean (RL1-H)
Protocol: as §3

| Binder | Kd [1] | koff [1] | kon [1] | Kd [2] | koff [2] | kon [2] | EC50 (read off the curve) [3] | EC50 (read off the curve) [4] |
| --- | --- | --- | --- | --- | --- | --- | --- | --- |
| 23203_3 (antibody, human IgG1, kappa, L234A L235A, V domains shown, Fully human IgG1-LALA, kappa) VH: QVQLQQWGAGLLKPSETLSLTCTVSGGSFSGYYWTWIRQPPGKGLEWIGEINHAGSTNYNPSLKSRVTISVDTSKNQFSLKLSSVTAADTAVYYCSSREYSSRWHFDYWGQGTLVTVSS VL: not shown | 15 nM | 0.0016 s⁻¹ | 110000 M⁻¹ s⁻¹ | 13 nM | 0.0018 s⁻¹ | 140000 M⁻¹ s⁻¹ | ~0.02 µg/mL | ~0.02 µg/mL |
| 23203_4 (antibody, human IgG1, kappa, L234A L235A, V domains shown, Fully human IgG1-LALA, kappa) VH: QVQLQQWGAGLLKPSETLSLTCAVYGGSFSGYYWTWIRQPPGKGLEWIGEINHAGSTNYNPSLKSRVTISVDTSKNQFSLKLSSVTAADTAVYYCSSREYSSRWHFDYWGQGTLVTVSS VL: not shown | 25 nM | 0.0023 s⁻¹ | 90000 M⁻¹ s⁻¹ | 15 nM | 0.0021 s⁻¹ | 150000 M⁻¹ s⁻¹ | ~0.02 µg/mL | ~0.02 µg/mL |
| 23203_1 (antibody, human IgG1, kappa, L234A L235A, V domains shown, Fully human IgG1-LALA, kappa) VH: QVQLQESGPGLVKPSETLSLTCTVSGGSFSGYYWSWIRQPPGKGLEWIGEINHAGSTNYNPSLKSRVTISVDTSKNQFSLKLSSVTAADTAVYYCSSREYSSRWHFDYWGQGTLVTVSS VL: not shown | 15 nM | 0.0021 s⁻¹ | 140000 M⁻¹ s⁻¹ | 13 nM | 0.0024 s⁻¹ | 180000 M⁻¹ s⁻¹ | ~0.02 µg/mL | ~0.02 µg/mL |

Stronger by Kd [1], values ahead:

| Kd [1] | koff [1] | kon [1] | Kd [2] | koff [2] | kon [2] | EC50 (read off the curve) [3] | EC50 (read off the curve) [4] | Binder |
| --- | --- | --- | --- | --- | --- | --- | --- | --- |
| 9.6 nM | 0.00031 s⁻¹ | 32000 M⁻¹ s⁻¹ | 7.2 nM | 0.0002 s⁻¹ | 28000 M⁻¹ s⁻¹ | ~0.05 µg/mL | ~0.07 µg/mL | 22883 (antibody, human IgG1, kappa, L234A L235A, V domains shown, Fully human IgG1-LALA, kappa) VH: EVQLVESGGGLVQPGGSLRLSCAASGFTFSSYAMSWVRQAPGKGLEWVSAISGGGDYTYYADSVKGRFTISRDNSKNTLYLQMNSLRAEDTAVYYCAKEEWELRGPFRYWGQGTLVTVSS VL: DIQMTQSPSTLSASVGDRVTITCRASQSISSWLAWYQQKPGKAPKFLIYKASSLESGVPSRFSGSGSGTEFTLTISSLQPDDFATYYCQQYNGFSWTFGQGTKVEIKR |
| 0.69 nM | 0.00057 s⁻¹ | 820000 M⁻¹ s⁻¹ | 80 nM | 0.0011 s⁻¹ | 14000 M⁻¹ s⁻¹ | ~0.4 µg/mL | ~0.007 µg/mL | 22995 (antibody, human IgG1, kappa, L234A L235A, V domains shown, Fully human IgG1-LALA, kappa) VH: EVQLVESGGSLVQPGGSLRLSCAASGFTFSSSAMSWVRQAPGKGLEWVSTISGSDSSTYDADSVKGRSTISRDNSKNTLYLQMNSLRADDTAVYYCAKKGAYCSGTICYDPFDYWGQGTLVTVSS VL: DIVLTQSPVLAVSLGQRATISCRASQSVSISSINLMHWYQQKPGQQPKLLIYRASNLASGIPARFSGSGSGTDFTLTIDPVQADDIAAYYCQQSRESPLTFGGGTKVEIKR |
| 11 nM | 0.0016 s⁻¹ | 140000 M⁻¹ s⁻¹ | 15 nM | 0.0016 s⁻¹ | 110000 M⁻¹ s⁻¹ | ~0.02 µg/mL | ~0.02 µg/mL | 23203_2 (antibody, human IgG1, kappa, L234A L235A, V domains shown, Fully human IgG1-LALA, kappa) VH: QVQLQQWGAGLLKPSETLSLTCAVYGGSFSGYYWTWIRQPPGKGLEWIGEINHSGSTNYNPSLKSRVTISVDTSKNQFSLKLSSVTAADTAVYYCSSREYSSRWHFDYWGQGTLVTVSS VL: not shown |
